Columns and labels:
crystal structure = target: the molecule itself; experiment: crystal structure
SEC = target: the molecule itself; experiment: SEC

B1: CHUP1_716-982, C-terminal fragment of CHUP1 (domain or fragment)
chain: NKVHRAPELVEFYQSLMKRESKKEGAPSLISSGTGNSSAARNNMIGEIENRSTFLLAVKADVETQGDFVQSLATEVRASSFTDIEDLLAFVSWLDEELSFLVDERAVLKHFDWPEGKADALREAAFEYQDLMKLEKQVTSFVDDPNLSCEPALKKMYKLLEKVEQSVYALLRTRDMAISRYKEFGIPVDWLSDTGVVGKIKLSSVQLAKKYMKRVAYELDSVSGSDKDPNREFLLLQGVRFAFRVHQFAGGFDAESMKAFEELRSRA
Crystal structure
  binding result: binds

B2: CHUP1_611-1004 (CHUP1-C), C-terminal fragment of CHLOROPLAST UNUSUAL POSITIONING 1 (domain or fragment)
chain: ITATGDQSNESNESNEGKASENAATVTKMKLVDIEKRPPRVPRPPPRSAGGGKSTNLPSARPPLPGGGPPPPPPPPGGGPPPPPGGGPPPPPPPPGALGRGAGGGNKVHRAPELVEFYQSLMKRESKKEGAPSLISSGTGNSSAARNNMIGEIENRSTFLLAVKADVETQGDFVQSLATEVRASSFTDIEDLLAFVSWLDEELSFLVDERAVLKHFDWPEGKADALREAAFEYQDLMKLEKQVTSFVDDPNLSCEPALKKMYKLLEKVEQSVYALLRTRDMAISRYKEFGIPVDWLSDTGVVGKIKLSSVQLAKKYMKRVAYELDSVSGSDKDPNREFLLLQGVRFAFRVHQFAGGFDAESMKAFEELRSRAKTESGDNNNNNNNNSNEEESVN
SEC
  stoichiometry N: 2

— article doi:10.1101/2020.01.14.905984 (bioRxiv, 2020)
